We go through 1 substance from paper PMC7934257.

The target in the assay is D-allulose 3-epimerase (DaeB) from Bacillus sp. KCTC 13219 (Bacillus sp. KCTC 13219). The assay is described as follows: SEC; Superdex 200 Increase 10/300 GL, 50 mM Tris pH 8.0, 300 mM NaCl, 0.5 mL/min; calibrated with ribonuclease A, ovalbumin, conalbumin and aldolase; self-association of purified DaeB. For orientation: SEC sorts molecules by how far they enter the pores of the column.

“D-allulose 3-epimerase (DaeB) from Bacillus sp. KCTC 13219 (enzyme)”: the stoichiometry N turned out to be 2.

The term stoichiometry N denotes the number of molecules, sites or subunits per partner or assembly.
